Laboratory results from paper PMC8752837, “Structural basis of BAK activation in mitochondrial apoptosis initiation” (Nature Communications, 2022).

T1: MEAS-BAK-His6 (C-terminus truncated recombinant human BAK containing C-terminal 6x histidine tag) (human) (UniProt Q16611)
T1 sequence: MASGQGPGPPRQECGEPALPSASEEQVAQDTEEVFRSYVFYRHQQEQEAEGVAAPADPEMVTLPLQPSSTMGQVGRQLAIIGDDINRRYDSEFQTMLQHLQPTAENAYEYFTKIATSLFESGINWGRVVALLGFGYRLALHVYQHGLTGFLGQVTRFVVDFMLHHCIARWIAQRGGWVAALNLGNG

T2: Human BAK-∆TM-His6 (human)
T2 sequence (Q16611 whole entry, looked up): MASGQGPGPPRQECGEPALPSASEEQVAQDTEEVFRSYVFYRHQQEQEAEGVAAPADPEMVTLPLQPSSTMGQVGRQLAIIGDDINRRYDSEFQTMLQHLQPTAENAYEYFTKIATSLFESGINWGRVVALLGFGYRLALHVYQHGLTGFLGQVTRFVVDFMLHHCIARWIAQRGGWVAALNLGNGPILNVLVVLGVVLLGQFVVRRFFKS


Columns and labels:
[1] = molecular target: T1, MEAS-BAK-His6 (C-terminus truncated recombinant human BAK containing C-terminal 6x histidine tag) (human)
[2] = molecular target: T2, Human BAK-∆TM-His6 (human); assay: SPR; MEAS-BAK-His6 captured (~500 RU) on Ni2+-charged NTA HisCap chip, peptides injected; 20 °C; 20 mM HEPES pH 8.0, 200 mM NaCl, 1 mM TCEP, 0.01% Tween20; 1:1 interaction model

Binder | Supplementary Table 1: liposome permeabilization EC50 (peptide dose against AUC, 50 nM BAK; data of Supplementary Figure 4b; also printed in Supplementary Figure 3d) [1] [nM] | Kd [2] [µM]
WT BAK BH3 peptide (N-terminal acetylation; C-terminal amidation) peptide: SASEEQVAQDTEEVFRSYVFYRHQQEQEAEGVAAPADPEMVTLPLQPSSTMGQVGRQLAIIGDDINRRYDSEFQTMLQHLQPTAENAYEYFTKIATSLFESGINWGRVVALLGFGYRLALHVYQHGLTGFLGQVTRFVVDFMLHHCIARWIAQRGGWVAALNL | 35.8 | –
BAK BH3 peptide (N-terminal acetylation; C-terminal amidation) peptide: SASEEQVAQDTEEVFRSYVFYRHQQEQEAEGVAAPADPEMVTLPLQPSSTMGQVGRQLAIIGDDINRRYDSEFQTMLQHLQPTAENAYEYFTKIATSLFESGINWGRVVALLGFGYRLALHVYQHGLTGFLGQVTRFVVDFMLHHCIARWIAQRGGWVAALNL | – | 67
